Measured values as given in the supplement of paper PMC10126150.
± gives the standard deviation of the averaged measurements.

test system: ATP; assay: switch fluorescence ratio, 500 uM ATP over buffer (Cy3 cluster intensity, sum of 5 cycles each) (fold (ratio)); higher = stronger signal-on switching upon ATP binding; sequences stand for … in TCGTCGGCAGCGTCAGATGTGTATAAGAGACAGTTTTTTTTTTTTTTTTTTTTTTTTT…TC; conditions: aptamer strand: ATP DNA aptamer (quencher-CACCTGGGGGAGTATTGCGGAGGAAGG + anchor), 100 nM annealed; ATP concentration: 500 uM
How it was run: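 Clusters with intensities outside 100-1000 RFU were excluded. The remaining Cy3-labelled switching-strand clusters on a modified Illumina MiSeq flow-cell had been annealed to 100 nM quencher-labelled ATP aptamer and imaged in selection buffer, then after 15 min with 500 uM ATP at 22 °C, for five cycles separated by NaOH stripping and re-annealing. The fluorescence ratio, averaged per switch-domain sequence, is each cluster's summed target-cycle Cy3 intensity over its summed buffer-cycle Cy3 intensity.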
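Note: ATP exposure 15 min at 22 °C before imaging.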

| Sequence | switch fluorescence ratio |
| --- | --- |
| ATTTAGTTTT | 0.976 ± 0.013 |
| ATTTATCTTT | 1 ± 0.032 |
| ATTTATTATG | 0.989 ± 0.038 |
| ATTTATTGAA | 0.996 ± 0.027 |
| ATTTATTTCT | 1.03 ± 0.064 |
| ATTTCAACGT | 0.9879 ± 0.0034 |
| ATTTCAATTT | 1.01 ± 0.02 |
| ATTTCAGCTG | 0.982 ± 0.027 |
| ATTTCGAGTT | 0.972 ± 0.014 |
| ATTTCGATTA | 0.9965 ± 0.0067 |
| ATTTCGTGGT | 0.9759 ± 0.0096 |
| ATTTCGTTTC | 1.05 ± 0.1 |
| ATTTGAAGAG | 1.01 ± 0.014 |
| ATTTGAAGCG | 0.998 ± 0.024 |
| ATTTGAAGGC | 0.9629 ± 0.0082 |
| ATTTGACTCT | 0.986 ± 0.021 |
| ATTTGAGCTG | 0.947 ± 0.13 |
| ATTTGAGGAT | 0.972 ± 0.027 |
| ATTTGAGGTT | 1.006 ± 0.005 |
| ATTTGATATG | 0.965 ± 0.031 |
| ATTTGATTCA | 0.997 ± 0.012 |
| ATTTGCCCGA | 1 ± 0.012 |
| ATTTGCGTTT | 0.999 ± 0.019 |
| ATTTGGAGG | 0.986 ± 0.013 |
| ATTTGGATCT | 0.9725 ± 0.0068 |

| Sequence | switch fluorescence ratio |
| --- | --- |
| ATTTGGGTTA | 1.01 ± 0.019 |
| ATTTGGGTTT | 0.992 ± 0.027 |
| ATTTGGTAAA | 0.9859 ± 0.009 |
| ATTTGGTAAT | 0.952 ± 0.01 |
| ATTTGGTGCT | 0.999 ± 0.018 |
| ATTTGGTTAG | 0.987 ± 0.025 |
| ATTTGTAAAG | 1 ± 0.034 |
| ATTTGTATGT | 0.963 ± 0.013 |
| ATTTGTGAGA | 0.9979 ± 0.0051 |
| ATTTGTGCAG | 0.954 ± 0.013 |
| ATTTGTGTGG | 0.973 ± 0.021 |
| ATTTGTTAGA | 1.03 ± 0.021 |
| ATTTGTTTAC | 1.011 ± 0.0065 |
| ATTTGTTTAT | 1.09 ± 0.17 |
| ATTTGTTTTG | 0.997 ± 0.053 |
| ATTTTAAGTA | 0.987 ± 0.031 |
| ATTTTAGAAT | 1.02 ± 0.03 |
| ATTTTATGAC | 1.008 ± 0.0025 |
| ATTTTATGCC | 1.01 ± 0.031 |
| ATTTTATTAG | 1.01 ± 0.021 |
| ATTTTCACC | 1.0095 ± 0.00081 |
| ATTTTCGAGT | 1 ± 0.021 |
| ATTTTCGGGG | 1.01 ± 0.039 |
| ATTTTCGTTG | 0.9666 ± 0.0095 |
| ATTTTGCGGA | 0.968 ± 0.013 |

| Sequence | switch fluorescence ratio |
| --- | --- |
| ATTTTGCTTT | 0.965 ± 0.021 |
| ATTTTGGCAA | 1.42 ± 0.3 |
| ATTTTGGCTT | 0.963 ± 0.037 |
| ATTTTGGGTT | 1 ± 0.022 |
| ATTTTGTATG | 0.976 ± 0.026 |
| ATTTTGTCCA | 1.02 ± 0.021 |
| ATTTTGTCTC | 1.01 ± 0.013 |
| ATTTTTAGGC | 1.11 ± 0.11 |
| ATTTTTAGTG | 1.008 ± 0.0068 |
| ATTTTTATGG | 0.996 ± 0.036 |
| ATTTTTATTT | 1.07 ± 0.12 |
| ATTTTTCGTT | 1 ± 0.03 |
| ATTTTTCTAG | 1.01 ± 0.03 |
| ATTTTTCTGC | 1.03 ± 0.039 |
| ATTTTTGAGA | 0.986 ± 0.017 |
| ATTTTTGAGG | 1.02 ± 0.017 |
| ATTTTTGGCG | 0.9867 ± 0.0088 |
| ATTTTTGGGC | 0.993 ± 0.024 |
| ATTTTTGGTT | 1.01 ± 0.042 |
| ATTTTTTCGA | 0.981 ± 0.014 |
| ATTTTTTTT | 0.996 ± 0.024 |
| CAAAAAAAAA | 1 ± 0.017 |
| CAAAAAAATG | 0.999 ± 0.03 |
| CAAAAAGATT | 1.01 ± 0.017 |
| CAAAAAGGGG | 0.964 ± 0.039 |

| Sequence | switch fluorescence ratio |
| --- | --- |
| CAAAAATGTT | 1.17 ± 0.19 |
| CAAAACTACT | 1.06 ± 0.011 |
| CAAAAGTAAC | 1.07 ± 0.032 |
| CAAAAGTTGG | 0.9923 ± 0.0052 |
| CAAAATATGC | 1.14 ± 0.12 |
| CAAAATTTCG | 1.016 ± 0.0015 |
| CAAACAGTTT | 0.994 ± 0.029 |
| CAAACCAACG | 1.345 ± 0.0044 |
| CAAACGCGCG | 0.997 ± 0.045 |
| CAAACTTTGG | 1.006 ± 0.0077 |
| CAAAGAGTAG | 1.002 ± 0.005 |
| CAAAGTAAAA | 1.04 ± 0.054 |
| CAAAGTTCGC | 0.9838 ± 0.0076 |
| CAAATAGGCT | 0.984 ± 0.028 |
| CAAATCAGTG | 1.002 ± 0.01 |
| CAAATCGTCG | 0.957 ± 0.022 |
| CAAATGGGAT | 0.9951 ± 0.0099 |
| CAAATGGGCC | 0.993 ± 0.019 |
| CAAATGGGTT | 1.01 ± 0.083 |
| CAAATTGGAA | 0.961 ± 0.043 |
| CAAATTTGC | 0.9315 ± 0.0035 |
| CAAATTTGG | 1.05 ± 0.031 |
| CAACAGAGTG | 1.07 ± 0.085 |
| CAACATCACG | 1.52 ± 0.057 |
| CAACATGATG | 0.995 ± 0.013 |

| Sequence | switch fluorescence ratio |
| --- | --- |
| CAACATTTCA | 1.01 ± 0.022 |
| CAACCAGTGT | 1.31 ± 0.026 |
| CAACCGGCCA | 1.11 ± 0.027 |
| CAACGTGTGG | 1.04 ± 0.072 |
| CAACTCCGGA | 1.204 ± 0.0066 |
| CAACTGCATA | 1.98 ± 0.063 |
| CAACTGGTAT | 1.17 ± 0.26 |
| CAAGAAGAGT | 1.01 ± 0.04 |
| CAAGAAGATG | 0.9523 ± 0.0012 |
| CAAGACAACT | 1.03 ± 0.033 |
| CAAGACAGCT | 1.02 ± 0.031 |
| CAAGATCATT | 1.008 ± 0.0036 |
| CAAGATGGTC | 0.987 ± 0.051 |
| CAAGATTGGA | 0.961 ± 0.025 |
| CAAGATTGTG | 1.01 ± 0.017 |
| CAAGCAAGAT | 2.58 ± 0.24 |
| CAAGCATAGG | 1.07 ± 0.072 |
| CAAGCGTCAC | 1.12 ± 0.019 |
| CAAGCTCTGT | 1.01 ± 0.016 |
| CAAGCTTTCG | 1.06 ± 0.048 |
| CAAGGAAACG | 1.002 ± 0.0034 |
| CAAGGACTGT | 1.05 ± 0.016 |
| CAAGGAGATG | 1.01 ± 0.046 |
| CAAGGAGGGG | 1.017 ± 0.0074 |
| CAAGGATTAA | 1.006 ± 0.0012 |

| Sequence | switch fluorescence ratio |
| --- | --- |
| CAAGGCTTGA | 0.974 ± 0.022 |
| CAAGGGCGGC | 0.973 ± 0.012 |
| CAAGGGGATT | 1 ± 0.027 |
| CAAGGTAAGG | 0.984 ± 0.011 |
| CAAGGTAGGG | 0.968 ± 0.019 |
| CAAGGTGGTC | 0.995 ± 0.029 |
| CAAGGTTATG | 0.974 ± 0.013 |
| CAAGTAGCGA | 1.088 ± 0.0072 |
| CAAGTAGGGA | 1.01 ± 0.057 |
| CAAGTAGGGG | 0.9765 ± 0.0015 |
| CAAGTTAATT | 0.987 ± 0.011 |
| CAAGTTGTAC | 1.1 ± 0.019 |
| CAAGTTTGTA | 0.997 ± 0.021 |
| CAATAAAGGT | 1.08 ± 0.18 |
| CAATAAGATT | 1.016 ± 0.0077 |
| CAATAATATG | 0.993 ± 0.029 |
| CAATAATTTA | 1.004 ± 0.0086 |
| CAATACAGTC | 1.03 ± 0.011 |
| CAATACTATA | 1.11 ± 0.067 |
| CAATACTTAT | 1.01 ± 0.019 |
| CAATAGATGT | 1.042 ± 0.0021 |
| CAATAGGGCA | 0.943 ± 0.024 |
| CAATAGTCAA | 1.05 ± 0.013 |
| CAATATGAAT | 1.02 ± 0.0057 |
| CAATATGATA | 1.003 ± 0.0011 |

| Sequence | switch fluorescence ratio |
| --- | --- |
| CAATATTGCC | 1.02 ± 0.051 |
| CAATCAATCG | 1.05 ± 0.017 |
| CAATCAGGAC | 1.06 ± 0.041 |
| CAATCTTGGG | 0.97144 ± 0.00089 |
| CAATGATCAG | 1.006 ± 0.0081 |
| CAATGATGAC | 1.01 ± 0.018 |
| CAATGGATGA | 1 ± 0.015 |
| CAATGGATTT | 1.026 ± 0.007 |
| CAATGGCCGG | 1.02 ± 0.028 |
| CAATGGCTTT | 0.9983 ± 0.0059 |
| CAATGGGGAA | 1 ± 0.014 |
| CAATGTGCAG | 0.98804 ± 5.9e-06 |
| CAATTATTAG | 0.988 ± 0.017 |
| CAATTCGAGC | 0.988 ± 0.015 |
| CAATTCGCGA | 1.2 ± 0.034 |
| CAATTCGTAA | 1.11 ± 0.018 |
| CAATTCGTCT | 0.994 ± 0.075 |
| CAATTGCCCA | 1.014 ± 0.0079 |
| CAATTGTACT | 0.994 ± 0.013 |
| CAATTTATAT | 0.994 ± 0.019 |
| CAATTTGTGT | 0.983 ± 0.012 |
| CAATTTTCTG | 0.985 ± 0.057 |
| CAATTTTGTG | 0.9807 ± 0.007 |
| CACAAGGTAT | 1.03 ± 0.033 |
| CACAATTGGG | 1.01 ± 0.035 |

| Sequence | switch fluorescence ratio |
| --- | --- |
| CACAGTTACC | 1.242 ± 0.0095 |
| CACATACATT | 1.24 ± 0.067 |
| CACATAGTTT | 1.03 ± 0.023 |
| CACATTGACC | 1.1119 ± 7.1e-05 |
| CACATTGTAG | 1.007 ± 0.0086 |
| CACATTTTCA | 1.01 ± 0.027 |
| CACCAAGGTT | 1.15 ± 0.088 |
| CACCAGGAAT | 1.08 ± 0.021 |
| CACCAGTGCT | 1.621 ± 0.0094 |
| CACCCATTGC | 1.584 ± 0.0038 |
| CACCGGGCCT | 1.02 ± 0.016 |
| CACCGGGGTT | 1.01 ± 0.018 |
| CACCTAGTTT | 1.01 ± 0.052 |
| CACGAATGCT | 1.04 ± 0.019 |
| CACGAGAAGT | 1.044 ± 0.0047 |
| CACGCGGTGG | 1.02 ± 0.13 |
| CACGCTAGTA | 1.04 ± 0.021 |
| CACGCTTCCG | 1.07 ± 0.047 |
| CACGGATGTT | 1.02 ± 0.093 |
| CACGGTCTAA | 1.03 ± 0.043 |
| CACGTAAACG | 1.0351 ± 9.7e-05 |
| CACGTTACTG | 1.66 ± 0.12 |
| CACTAGAGGT | 1.03 ± 0.06 |
| CACTAGTTTT | 1.01 ± 0.012 |
| CACTATGGGA | 1.02 ± 0.027 |
